Values of other authors as cited in paper PMC6767261.
pKd: −log10 of the molar value.

Target: Endothelin receptor type B (UniProt P24530)
Assay: radioligand

Chain of UniProt P24530 (P24530 27-442): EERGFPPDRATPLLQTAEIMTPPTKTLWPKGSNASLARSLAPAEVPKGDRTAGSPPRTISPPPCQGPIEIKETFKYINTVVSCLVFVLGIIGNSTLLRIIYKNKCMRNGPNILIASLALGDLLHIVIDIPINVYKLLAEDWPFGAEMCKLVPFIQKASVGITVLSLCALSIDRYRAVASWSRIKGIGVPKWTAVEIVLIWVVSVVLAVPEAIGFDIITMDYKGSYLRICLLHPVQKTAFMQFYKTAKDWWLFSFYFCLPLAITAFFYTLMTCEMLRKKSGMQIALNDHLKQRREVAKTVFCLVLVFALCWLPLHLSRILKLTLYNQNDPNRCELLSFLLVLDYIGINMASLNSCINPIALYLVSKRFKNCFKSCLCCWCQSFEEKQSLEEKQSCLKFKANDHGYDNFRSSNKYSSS

Substance | pKd
Endothelin-1 ([125I]-ET-1), ciliary muscle (from UniProt P05305) | 6.85
Endothelin-1 ([125I]-ET-1), ciliary epithelium (from UniProt P05305) | 7.26
